Assay results from US20180021429A1, “ANTICANCER AGENTS OR ANTIMETASTATIC AGENTS USING FSTL1 AND COMBINATION DRUG THEREOF” (PHARMA FOODS INTERNATIONAL CO., LTD., priority 2015, published 2018).

What was measured:
Type in all cases: cell-based
[1] = test system: Treg induction caused by FSTL1; assay: Treg induction inhibitory activity using human peripheral blood cells (Example 25); details: human PBMCs; FSTL1 5 ng/ml; antibody 5 μg/mL; 3 days
Experimental: Human peripheral blood cells (1×10^6 cells) were stimulated using FSTL1 (5 ng/ml), supplemented with the antibody (5 μg/mL), and cultured for 3 days. The percentage of a Foxp3^+CTLA4^+ cell fraction (Exp. 1) or a CD4^+Foxp3^+CTLA4^+ cell fraction (Exp. 2) in CD4^+ T cells was analyzed as Treg cells by flow cytometry. The flow cytometry conditions are as follows.
Blood was collected from a healthy person by the addition of a 1/10 amount of 4% sodium citrate, then layered on Ficoll (specific gravity: 1.090), and centrifuged (1500 rpm, 20 min, room temperature), and a cell fraction present in an intermediate layer was used as “PBMCs”. The antibody (5 μg/mL) was added to a system in which these PBMCs (1×10^4 cells) were cultured for 3 days under stimulation with FSTL1 (5 ng/ml) in a 24-well plate. PBMCs recovered from the culture system were incubated at 4° C. for 1 hour using an anti-CD4 antibody (BD Pharmingen/Becton, Dickinson and Company), an anti-CD25 antibody (BD Pharmingen/Becton, Dickinson and Company), and an anti-FoxP3 antibody (eBioscience). Then, the percentage of a Foxp3+CTLA4+ cell fraction (Exp. 1) or a CD4+Foxp3+CTLA4+ cell fraction (Exp. 2) in CD4+ T cells contained therein was analyzed as Treg cells using a flow cytometer FACScan (Becton, Dickinson and Company).

[2] = test system: Panc1, Panc1-snail+, MIAPaCa, MDA231, Hs294T; assay: Proliferative capacity and invasive capacity of various human tumor cells (Example 26); details: antibody 5 μg/ml; 3 days culture; Matrigel transwell 4 hours
Experimental: Specifically, the influence of the anti-FSTL1 antibody on proliferative capacity and invasive capacity was studied using various human tumor cells, regardless of the presence or absence of the expression of Snail or FSTL1. Specifically, the anti-FSTL1 antibody (#6-55, 5 μg/ml) or a control antibody (aHema: mouse chimeric anti-hemagglutinin antibody, 5 μg/ml) was added to systems in which a pancreatic cancer cell line Panc1 (ATCC #CRL-1469), Panc1-snail+ which is a Panc1 cell line forced to express Snail, a pancreatic cancer cell line MIAPaCa (ATCC #CRL-1420), a bone metastatic breast cancer cell line MDA231 (ATCC #HTB-26), and a melanoma cell line Hs294T (ATCC #HTB-140) were each cultured at 1×10^5 cells. After culture for 3 days, the number of cells per culture system was counted to evaluate the proliferative capacity of the cells. The cells (5×10^4 cells) after the counting were further inoculated to Matrigel-coated transwell chamber (Corning Inc. #354480) and cultured for 4 hours. Then, the membranes were removed, and stained and fixed with Crystal Violet fixative. Then, the number of cells that permeated the membranes was counted under a microscope to evaluate the invasive capacity of the cells.

[3] = test system: human pancreatic cancer cell line Panc1; assay: Action of anti-FSTL1 antibody under FSTL1 stimulation (Example 26); details: Panc1 stimulated with FSTL1 for 3 days; antibody 5 μg/ml
Experimental: Next, in order to examine how surrounding tumor cells were changed in a cancer microenvironment by receiving FSTL1 produced by Snail/FSTL1-expressing cells, and how the anti-FSTL1 antibody acts thereon, a human pancreatic cancer cell line Panc1 confirmed to express Snail or FSTL1 only slightly was stimulated with FSTL1 for 3 days. The anti-FSTL1 antibody (#6-55, 5 μg/ml) or a control antibody (aHema, 5 μg/ml) was added to this culture system, and subsequent change in cell function was analyzed in the same way as in the preceding paragraph. […] The paper also reports that FSTL1 enhances invasive capacity.

mouse bone marrow cells = assay: Ability of FSTL1-induced MSCs to differentiate into adipocytes (Examples 14, 16); details: Example 16; antibody 20.0-2.5 μg/ml; FIG. 104B
Experimental: The antibody clone (#6-55, #7, #10, #13, or #22) was evaluated for its activity by the same testing method as in Example 13. #6-55 was set as a positive control for activity. […] Mouse bone marrow cells were supplemented with FSTL1 and the predetermined concentration of each antibody and cultured for 8 days. 5×10^4 cells/well were separated from each culture system and evaluated for the ability to differentiate into adipocytes using an adipocyte differentiation reagent included in “Mesenchymal Stem Cell Functional Identification Kit (R&D Systems, Inc., Cat. No. SC010)”. For the evaluation method, the cells were supplemented with the adipocyte differentiation reagent and cultured for 8 days. Then, adipocytes per culture system were counted under a microscope for evaluation. […]
In the same way as in Example 15, mouse bone marrow cells were supplemented with FSTL1 and the predetermined concentration of each antibody and cultured for 8 days. 5×10^4 cells/well were separated from each culture system and evaluated for the ability to differentiate into adipocytes using an adipocyte differentiation reagent included in “Mesenchymal Stem Cell Functional Identification Kit (R&D Systems, Inc., Cat. No. SC010)”. […] Then, adipocytes per culture system were counted under a microscope for evaluation (FIG. 104B). […]

[4] = test system: Panc1, Panc1-snail+, MIAPaCa, MDA231, Hs294T; assay: Proliferative capacity and invasive capacity of various human tumor cells; details: particularly in highly metastatic tumor cell line highly expressing Snail
Excerpt: (§1) Specifically, the influence of the anti-FSTL1 antibody on proliferative capacity and invasive capacity was studied using various human tumor cells, regardless of the presence or absence of the expression of Snail or FSTL1. […] After culture for 3 days, the number of cells per culture system was counted to evaluate the proliferative capacity of the cells. […] Then, the number of cells that permeated the membranes was counted under a microscope to evaluate the invasive capacity of the cells.
as §1

B1: #6-55: chicken-mouse chimeric anti-FSTL1 antibody clone; variable regions SEQ ID NO: 783 (light), 785 (heavy) (antibody, V domains shown)
VH: AVTLDESGGGLQTPGGALSLVCKGSGFTFTSVTMQWVRQAPGKGLEWVASVCSGSSTYYAPAVKGRATISRDNGQSTVRLQLSNLRPEDTGTYYCAKIAGRARWSCTSAAYNIDAWGHGTEVIVSS
VL: ASTQPSSVSAIPGETVKITCSGGGNNYGWYQQRSPGSAPVTVIYYNDNRPSNIPSRFSGSTSGSTSTLTITGVQADDEAIYYCGSWDSNTDSGIFGAGTTLTVL
modifications: mouse constant regions
Treg induction by FSTL1 (Foxp3+CTLA4+ / CD4+Foxp3+CTLA4+ cell fraction) [1]: significantly suppressed | proliferative capacity and invasive capacity of tumor cells [2]: both proliferative capacity and invasive capacity were strongly suppressed, particularly, in a highly metastatic tumor cell line highly expressing Snail | cell growth [3]: the cell growth was reduced by the addition of the anti-FSTL1 antibody together with FSTL1 | invasive capacity enhanced by FSTL1 [3]: the action thereof is canceled | cells differentiating into adipocytes (mouse bone marrow cells): decreased in number by the addition of #6-55 in a dose-dependent manner | invasive capacity ([4]; Matrigel-coated transwell chamber, 4 hours): strongly suppressed | proliferative capacity ([4]; antibody 5 μg/ml, 3 days): strongly suppressed
